Measurements published in patent US20220195015A1 (published 2022).
Residue numbers refer to the chain shown, from its start.

What was measured:
[1] = molecular target: SARS-CoV-2 receptor binding domain (RBD), wild type (SARS-CoV-2, UniProt P0DTC2 319-539); test: ELISA, RBD coated on the plate, antibody titrated
[2] = molecular target: SARS-CoV-2 RBD (S protein residues 319-539), wild type (SARS-CoV-2, UniProt P0DTC2 319-539); test: ELISA, RBD coated on plate, mAb titrated

B1: C593 (antibody, V domains shown)
VH: QVQLVQSGAEVKKPGASVKVSCKASGYTFTSYDINWVRQAPGQGLEWMGWMNPNSGNTDYAQKFQGRFTMTRNTSISTAYMELSSLRSEDTAVYYCASRRWDPLTFYYYMVVWGKGTTVTVSS
VL: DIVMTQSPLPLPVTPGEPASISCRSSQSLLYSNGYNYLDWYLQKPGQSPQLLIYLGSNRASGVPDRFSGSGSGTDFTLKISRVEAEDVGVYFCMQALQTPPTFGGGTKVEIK
- EC50 [1]: 4.36 ng/mL

B2: C590 (antibody, V domains shown)
VH: QVQLVQSGAEVKKPGASVKVSCKVSGYNLTELSMYWVRQAPGKGLEWMGGFDPEDGGPIHAQKFQGRVTMTEDPSTDTAYMELRSLRSEDTALYYCATGGLFMIRGLEIWGRGTLVTVSS
VL: EIVLTQSPGTLSLSPGERATLSCRASQSISYTSLAWYQQKPGQAPRLLIFGASRGATGTPDRFSGSWSGTDFTLTISRLEPEDFAVYYCQQYGNSPRLSFGGGTKVEIK
- EC50 [1]: 2.81 ng/mL

B3: C590 (antibody, V domains shown)
VH: B2 VH
VL: B2 VL
- EC50 [2]: 2.81 ng/mL

B4: C589 (antibody, V domains shown)
VH: QVQLQESGPGLVKPSQTLSLTCTVSGGSISSGDYYWSWIRQPPGKGLEWIGYIYYSGSTNYNPSLRSRVTISVDTSKNQFSLRLRSVTAADTAVYYCARDAIGSASYGVEYFQHWGQGTLVTVSS
VL: not shown
- EC50 [1]: 6.61 ng/mL

B5: C589 (antibody, V domains shown)
VH: B4 VH
VL: not shown
- EC50 [2]: 6.61 ng/mL

B6: C584 (antibody, V domains shown)
VH: EVQLVESGGGLVQPGGSLRLSCAASGFTFSTYDMHWVRQATGKGLEWVSAIGTAGDKYYPGSVKGRFTISRENAKNSLYLQMNSLRAGDTAVYYCVRAGYSSGWPLYWYFDLWGRGTLVTVSS
VL: DIQMTQSPSSLSASVGDRVTITCRASQSISSYLNWYQQKPGKAPKFLIYAASSLQSGVPSRFSGSGSGTDFTLTISNLQPEDFATYYCQQSYRTPPEFTFGPGTKVDIK
- EC50 [1]: 10.5 ng/mL

B7: C584 (antibody, V domains shown)
VH: B6 VH
VL: B6 VL
- EC50 [2]: 10.5 ng/mL

B8: C585 (antibody, V domains shown)
VH: QVQLQESGPGLVKPSETLSLTCTVSGDSISSYFWSWIRQPPGRGLEWIGYIHDSVNTNYNPSLKSRVTISVDTSKSQFSLRLSSVTAADTAVYYCARCAWLRGSFDYWGQGTLVTVSS
VL: NFMLTQPHSVSESPGKTVTISCTGSSGSIASNYVQWYQQRPGSAPTTVIYEDNQRPSGVPDRFSGSIDSSSNSASLTISGLKTEDEADYYCQSYDFSSHYVFGTGTKVTVL
- EC50 [1]: 11 ng/mL

B9: C585 (antibody, V domains shown)
VH: B8 VH
VL: B8 VL
- EC50 [2]: 11 ng/mL

B10: C582 (antibody, V domains shown)
VH: QVQLVESGGGVVQPGRSLRLSCVASGFTFSYFDMHWVRQAPGKGLEWVALISHDGSTTFYGDSARGRFTISRDNSRNTLDLQMNSLRPEDTAVYFCAKPVDAAMFDFWGQGTLVTVS
VL: SYELTQPPSVSVAPGKTARITCGGNNIGSKSVHWYQQRPGQAPVLVIYYDSDRPSGIPERFSGSNSGNTATLTISRVEAGDEADFYCQVWDRSTNHLVVFGGGTQLTVL
- EC50 [1]: 8.43 ng/mL

B11: C582 (antibody, V domains shown)
VH: B10 VH
VL: B10 VL
- EC50 [2]: 8.43 ng/mL

B12: C594 (antibody, V domains shown)
VH: QVQLVESGGGVVQPGRSLRLSCAASGFTFSSYGMHWVRQAPGKGLEWVAVISDDGSNKYYADSVKGRFTISRDNSKNTLYLQMNSLRAEDTAVYYCAKSWWLSENWFDPWGQGTLVTVSS
VL: EIVMTQSPATLSVSPGERATLSCRASQSVSSNLAWYQQKPGQAPRLLIYGASTRATGIPARFSGTGSGTEFTLTISSLQSEDFAVYYCQQYNNWPLTFGGGTKVEIK
- EC50 [1]: 2.63 ng/mL

B13: C595 (antibody, V domains shown)
VH: B12 VH with P14A, Y32F, M34L, S56A, E89D, V93K
VL: B12 VL with S30R, T65S, E70D
- EC50 [1]: 2.04 ng/mL

B14: C596 (antibody, V domains shown)
VH: QVQLVESGGGVVQPGRSLRLSCAASGITFSHYGMHWVRQAPGKGLEWVALISSDGSKKYYADSVKGRFTISRDNSKSTLYLQMNSLRAEDTAIYYCAKDLGYYYGPPYGPDYWGQGTLVTVSS
VL: DIQMTQSPSSLSASVGDRVTITCQASQDVSNSLNWYQQKPGKAPKLLIYDASNLETGVPSRFSGSGSGTDFSFTISSLQPEDIATYYCLQYDNFSMYTFGQGTKLEIK
- EC50 [1]: 21 ng/mL

B15: C591 (antibody, V domains shown)
VH: QVQLVQSGAEVKKPGASVKVSCKASGYILTDYFIHWVRQAPGQGLEWMGWINPNSGGTNYAQKFQGRVTMTRDTSISTAYMELSRLRSDDTAVYHCARYKGTTVNTNYYYGMDVWGQGTTVTVSS
VL: not shown
- EC50 [1]: 3.83 ng/mL

B16: C592 (antibody, V domains shown)
VH: B15 VH with I28T, L29F, I34N, Y60S, S77T, A79V, H95Y
VL: SYELTQPPSVSVSPGQTASITCSGDKLRNKYACWYQQKAGQSPMLVIYQDTKRPSGIPERFSGSNSGNTATLTISGTQAMDEADYYCQAWDISTVVFGGGTKLTVL
- EC50 [1]: 6 ng/mL

B17: C588 (antibody, V domains shown)
VH: EVQLVESGGGLVQPGGSLKLSCAASGFTFSGSAMHWVRQASGKGLEWVGRIRNKANSYATAYGASVRGRFTVSRDDSKNTAYLQMNSLKIEDTAVYYCTKDIAAGIPALNWFDSWGQGTLVTVSS
VL: EIVLTQSPATLSLSPGERATLSCRASQSVSSYLAWYQQKPGQAPRLLIYDASNRATGIPARFSGSGSGTDFTLTISSLEPEDFAVYYCQQHTNWPPRITFGGGTKVEIK
- EC50 [1]: 1.36 ng/mL

B18: C588 (antibody, V domains shown)
VH: B17 VH
VL: B17 VL
- EC50 [2]: 1.36 ng/mL

B19: C586 (antibody, V domains shown)
VH: EVQLVESGGGLIQPGGSLRLSCTASGLIVSSNYMSWIRQAPGKGLEWVSLIYSGGSTFYADSVKGRFTISRDNSKNTLFLHMNSLRAEDTAVYYCARHPYGTDVWGQGTTVTVSS
VL: DIQMTQSPSSLSASVGDRVTITCQASQDIVKYLNWYQQKSGKAPKLLIHDASNLETGVTSRFSGSGSGTHFTFTISSLQPEDLATYYCQQYDNLPITFGQGTRLEIK
- EC50 [1]: 5.42 ng/mL

B20: C586 (antibody, V domains shown)
VH: B19 VH
VL: B19 VL
- EC50 [2]: 5.42 ng/mL

B21: C583 (antibody, V domains shown)
VH: EVQLVESGGGLIQPGGSLRLSCAASILTVSRNYMSWVRQAPGKGLEWVSSIYSGGTTYYADSVKGRFTISRDDSKNTLYLQMNSLRAEDTAVYYCARPVVGGRAGMDVWGQGTTVTVSS
VL: DIQMTQSPSSLSASVGDRVTITCQASQDINKYLNWYQQKPGKAPKLLIYDASNLETGVPSRFSGSGSGTDFTFTISSLQPEDIGTFYCLHNDNPPLTFGGGTKVEIK
- EC50 [1]: 4.42 ng/mL

B22: C583 (antibody, V domains shown)
VH: B21 VH
VL: B21 VL
- EC50 [2]: 4.42 ng/mL

B23: C587 (antibody, V domains shown)
VH: QVQLVQSGAEVKKSGSSVKVSCKASGGSFSSYAISWVRQAPGQGLEWMGGIIPIFGTAKYAQKFQGRVTITADESTSTAYMELSSLRSEDTAVYYCASRWEQLNGGSWHYFDYWGQGTLVTVSS
VL: QSALTQPASVSGSPGQSITISCTGTRSDVGRNNLVSWYQHHPGKAPKVMIYEGSKRPSGVSTRFSGSKSGNTASLTISGLQAEDEADYYCCSYAGSSTFEGVFGGGTKLTVL
- EC50 [1]: 4.39 ng/mL

B24: C587 (antibody, V domains shown)
VH: B23 VH
VL: B23 VL
- EC50 [2]: 4.39 ng/mL
